Results reported in article PMC7773637, “Short-Chain Dehydrogenase NcmD Is Responsible for the C-10 Oxidation of Nocamycin F in Nocamycin Biosynthesis” (Frontiers in Microbiology, 2020).

System: CC1=CC(O)C2OC1(C(C)C(C)O)OC(C(C)/C=C(C)/C=C/C(O)=C1C(=O)CNC1=O)C2C
Experiment: HPLC product quantification, initial rates, Michaelis-Menten fit
Type: biochemical, Saccharothrix syringae
Conditions: 2 mM NAD^+, pH 8.5, 45°C, 0.2 μM NcmD

Work on NcmD (Saccharothrix syringae) yielded a Km of 131 ± 13 µM and a kcat of 1.08 ± 0.083 s⁻¹.
